Literature values, collected in article PMC3597628.
Like-named read-outs stand apart in the source and are kept apart here.

Key:
[1] = target: (Pro)renin receptor (Homo sapiens) (UniProt O75787)
[2] = target: (Pro)renin receptor (Homo sapiens) (UniProt O75787); remark: listed apart in the source

UniProt O75787, sequence (O75787 17-302): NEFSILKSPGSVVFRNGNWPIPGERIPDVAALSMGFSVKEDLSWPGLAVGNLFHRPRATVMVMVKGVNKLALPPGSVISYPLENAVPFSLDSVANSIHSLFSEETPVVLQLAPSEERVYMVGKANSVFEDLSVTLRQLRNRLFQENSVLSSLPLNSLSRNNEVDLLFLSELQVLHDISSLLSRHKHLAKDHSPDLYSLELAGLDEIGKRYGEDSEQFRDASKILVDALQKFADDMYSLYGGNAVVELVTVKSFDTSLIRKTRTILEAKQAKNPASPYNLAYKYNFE

Substance	Kd [1] [nM]	Kd [2] [nM]
Prorenin (from UniProt P08424)	8.3	–
Prorenin (from UniProt P00797)	–	1.2
